Test results as given in patent US20060246520A1, “Gamma delta t cell-mediated therapy” (INSTITUT NATIONAL DE LA SANTE ET DE LA RECHERCHE MEDICALE, priority 2003, published 2006).
One block for each molecule: values may come before it.

Tests used:
[1] = system: K562 cells; experiment: PE-labelled TCR tetramer staining of serum-depleted K562 cells incubated with apolipoproteins or competing mAb; format: cell-based, human; conditions: serum-depleted K562, apolipoprotein preparations 100 μg/ml
Experimental: FIG. 3: Vγ9Vδ2 TCR binding to tumor cells and apoA-I. PE-labeled tetrameric TCRs from clone G115 and clone 73R9 were used to stain tumor cell lines and assess the influence of apolipoproteins on their tumor recognition. Shaded histograms: concentration-matched streptavidin-PE alone. Line histograms: binding of the indicated PE-labelled tetrameric TCR. (a) Cell lines were cultured in 10% fcs before staining with tetramers. (b) K562 cells were serum-depleted, incubated with 10% human serum or the indicated apolipoprotein preparations (100 μg/ml) and stained with G115 or 73R9 TCR tetramers. (c) Serum-depleted K562 cells were incubated with 100 μg/ml of HDL hApoA-I (left histogram) or hM5L (right histogram) and labeled with G115 TCR tetramers in the presence of the indicated competing mAb (20 μg/ml). […] Data are representative of three experiments.
Immunofluorescence stainings were performed in PBS containing 1% BSA and devoid of serum using FITC-conjugated goat F(ab)′2 anti-mouse Ig antibody (Caltag) as the second step reagent. Irrelevant isotype-matched control antibodies were used as negative controls. In apolipoprotein binding experiments, serum-deprived cells were incubated with serum or purified protein preparations in PBS containing 1% BSA, at room temperature, 30 minutes prior to antibody staining. 7H10 (anti-α-ATP synthase) and 3D5 (anti-β-ATP synthase) and 7F9 (anti-γ-ATP synthase) are from Molecular Probes. 4H1 (anti-human apoA-I) (Collet et al., 1997) was obtained from Dr Y. Marcel (Ottawa).
The G115 (Vγ9Vδ2) (3) and 73R9 (Vγ8Vδ3) extracellular γ and δ chains (the latter carrying a short 3′ Biotin tag) were expressed in Escherichia coli, then refolded together by rapid dilution in 1 L of 1 M L-arginine, 0.1 M Tris-HCl, pH 8.0 and 0.2 mM reduced/0.2 mM oxidized glutathione. After dialysis against 10 mM Tris-HCl pH 8.0, concentration by cation exchange chromatography at pH 5.5, and purification by size exclusion chromatography at pH 8.0, the refolded protein was biotinylated for 4 h at 30° C. with 6 μg/ml BirA and excess of free biotin was removed by dialysis against 10 mM Tris-HCl pH 8.0, 150 mM NaCl. Tetramers of γδ TCR heterodimers were obtained by mixing the biotinylated TCR with phycoerythrin-labeled streptavidin (Biosource) at a molar ratio of 10:1. For staining, 2.10^5 cells were incubated at room temperature for 45 min with phycoerythrin-labeled γδ TCR tetramers at a concentration of TCR of 30 μg/ml in PBS plus 1% BSA. Background staining was determined using phycoerytlrin-labeled streptavidin at the same concentration.

[2] = system: immobilized Vγ9Vδ2TCR; experiment: SPR: purified apolipoprotein binding to immobilized Vγ9Vδ2TCR; set-up: species or system human; conditions: soluble proteins injected at 100 μg/ml; immobilized TCR 335 RU
Source text: FIG. 7. Surface plasmon resonance analysis. Soluble proteins were exposed to the sensorchip surface for 240 s (association phase) followed by a 240-s flow running (dissociation phase). Immobilized proteins were on sensorchips flowcell 2. Sensorgrams are representative of specific interactions (differential response) where non-specific binding that occurred on flow cell 1 (with no protein immobilized) was deduced from binding that occurred on flow cell 2. Results are expressed as resonance units (RU) as a function of time in seconds.
(c) Comparative sensorgrams of purified apoA-I (full line) and apoA-II (dotted line) binding to immobilized Vγ9Vδ2TCR (proteins were injected at 100 μg/ml). Amount of immobilized TCRγδ protein was 335 RU on flow cell 2.
ApoA-I and ATP synthase (F1 subunit) were immobilized by amine linkage on CM5 chips (Biacore AB) following NHS-EDC activation; Vγ9Vδ2-biotinylated soluble TCRs were immobilized on SA streptavidin-coated chips (Biacore AB) and binding was analyzed in a Biacore 3000 apparatus (BiacoreAB). Soluble ligands were injected at a flow rate of 20 μl/min, exposed to the surface for 240 s (association phase) followed by a 240-s flow running during which the dissociation occurred. […] Results are expressed as resonance units (RU) as a function of time in seconds.

[3] = system: Raji cells; experiment: 125I-labelled free apoA-I binding assay on Raji cells; set-up: species or system human; conditions: 2 hours at 4° C.
Experimental: (§1) (e): ^125I-labelled free apoA-I binding was measured after 2 hours incubation at 4° C. on Daudi and Raji cells. Top and bottom panels: binding isotherm of ^125I-labeled free apoA-I to Daudi (top) and Raji (bottom) cells. (◯): total binding, (σ): non-specific binding; (●): specific binding. Middle panel: Scatchard representation of specific binding on Daudi cells.
(§2) The binding experiments were performed at 4° C. for 2 hours as previously described (Barbaras et al., 1994). Briefly, cells (9 μg of cell proteins per point) were incubated in PBS for 2 hours at 4° C. with increasing concentrations of labeled apoA-I. Cells were filtered on 0.22 μm filters (GVWP Millipore-France) and washed four times with 1% BSA in PBS. Filters were used for radioactivity measurements. Non-specific binding was determined in the presence of a 100-fold excess (as compared to the KD value) of the corresponding unlabeled ligand. Binding was analyzed using a weighted non-linear curve-fitting program, based on the LIGAND analysis program (Prism-GraphPad).

[4] = system: Vγ9Vδ2 T cells; experiment: TNFα secretion by T cell clones stimulated with protein-coated latex beads; format: cell-based, human; conditions: serum-free (sfm)
Source text: FIG. 6: Induction of Vγ9Vδ2 T cell lymphokine secretion by immobilized ATP-synthase. HDL-derived apoA-I and ATP synthase were immobilized on latex beads and these were used to stimulate T cell populations. none: no stimulation; empty: beads saturated with BSA; apoA-I: beads coated with apoA-I only. AS: beads coated with the F1 extra-membrane subunit of bovine ATP synthase. AS/apoA-I: beads coated with both protein preparations.
[…] The capacity of γδ clones G25, G115, 73R9 to secrete significant amounts of TNFα upon stimulation was checked by using Daudi cells as target cells as well as PMA/ionomycin or PHA. The αβ clone A4.19 secretes saturating quantities of TNFα upon PMA/ionomycin or PHA stimulation (not shown). […]
2 h- ^51Cr-release assays were performed in standard conditions except for the use of serum-free conditions in some experiments: in sensitization experiments with apolipoprotein preparations, target tumor cells were serum-deprived as described for facs analysis, loaded with ^51Cr (100 μCi/10^6 cells, 1 hour, 37° C.), extensively washed in RPMI and resuspended in sfm medium. […] Specific lysis was calculated as the percentage of maximum release. […] IFNγ was titrated by a specific Elisa technique, whereas TNFα concentration was assessed by a biological assay based on WEHI cells viability. […]

[5] = system: Daudi cells; experiment: 125I-labelled free apoA-I binding assay on Daudi cells (Scatchard); set-up: species or system human; conditions: 2 hours at 4° C.; single binding receptor; read-out: KD of binding to Daudi cells (Scatchard analysis)
Experimental: as §1, §2

[6] = target: single binding receptor for apoA-I on Daudi cells; experiment: Scatchard analysis of 125I-labelled free apoA-I binding to Daudi cells, 2 h at 4° C.
[7] = target: human lipid-free apoA-I prepared from high density lipoprotein particles (HDL-apoA-I) (human) (UniProt P02647); experiment: SPR (Biacore 3000), apoA-I immobilized (2260 RU), TCR injected at 125 nM to 2 µM
[8] = target: purified bovine ATP synthase (F1 subunit) (bovine) (UniProt P19483); experiment: SPR (Biacore 3000), ATP synthase (F1) immobilized (22440 RU), TCR injected at 0.5 to 4 µM
[9] = system: Daudi cells; experiment: 51Cr release assay of Daudi cytolysis by effector T cell clones in serum-free medium; format: cell-based, human; conditions: serum-depleted targets
Experimental: FIG. 2: ApoA-I-dependent activation of Vγ9Vδ2 T cells. ^51Cr release assays were performed in serum-free medium (sfm) to assess dependance on serum and apoA-I of Daudi cytolysis by different effector T cell populations. G25 and G42: Vγ9Vδ2 T cell clones, 73R9: Vγ8Vδ3 T cell clone. M5L (bovine serum component immunopurified with M5 antibody) was tested at the indicated concentration for its ability to substitute for serum (fcs). Recombinant annexin V was used as a control purified protein.
2 h- ^51Cr-release assays were performed in standard conditions except for the use of serum-free conditions in some experiments: in sensitization experiments with apolipoprotein preparations, target tumor cells were serum-deprived as described for facs analysis, loaded with ^51Cr (100 μCi/10^6 cells, 1 hour, 37° C.), extensively washed in RPMI and resuspended in sfm medium. Effector T cells cultivated in serum-containing medium were washed extensively in RPMI, incubated for 2 hours in sfm at 37° C. and resuspended in sfm medium. […] Specific lysis was calculated as the percentage of maximum release. […] IFNγ was titrated by a specific Elisa technique, whereas TNFα concentration was assessed by a biological assay based on WEHI cells viability.

Chain of UniProt P02647 (P02647 25-267 limits assumed): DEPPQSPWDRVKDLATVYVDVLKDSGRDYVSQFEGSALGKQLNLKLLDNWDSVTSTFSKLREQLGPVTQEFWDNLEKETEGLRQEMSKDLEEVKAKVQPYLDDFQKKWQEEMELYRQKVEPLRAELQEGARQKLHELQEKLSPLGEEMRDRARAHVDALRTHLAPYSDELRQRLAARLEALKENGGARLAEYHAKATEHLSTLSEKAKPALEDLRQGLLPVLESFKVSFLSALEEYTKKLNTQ

Molecule: apoA-II: purified apolipoprotein A-II, control of hydrophobicity similar to that of apoA-I [reference compound]
effect on Vγ9Vδ2 TCR tetramer binding to K562 [1]: did not enhance

interaction with immobilized G115 TCR [2]: specifically interacted
Molecule: apolipoprotein A-I [apoA-I]
effect on Vγ9Vδ2 TCR tetramer binding to K562 [1]: increased
effect on binding of Vγ8Vδ3 TCR tetramers to K562 [1]: neither serum, nor apoA-I, affected the binding
specific binding on Raji cells [3]: absence of specific binding
stimulatory activity on Vγ9Vδ2 T cells in serum-free conditions [4]: relatively minor increase
Kd [5]: 80 nM

Molecule: hM5L: human serum ligand of M5 mAb, immunopurified; identity to apoA-I confirmed
effect on Vγ9Vδ2 TCR tetramer binding to K562 [1]: increased

Kd [6]: 80 nM
Molecule: human lipid-free apoA-I prepared from high density lipoprotein particles (HDL-apoA-I) (from UniProt P02647 25-267) (ligand)

Kd [7]: 810 nM
koff [7]: 0.00713 s⁻¹
kon [7]: 8800 M⁻¹ s⁻¹
Kd [8]: 1510 nM
koff [8]: 0.00254 s⁻¹
kon [8]: 1680 M⁻¹ s⁻¹
Molecule: soluble monomeric G115 TCR (Vγ9Vδ2)

B1: M5L: bovine serum component immunopurified with M5 antibody, ~28 kDa, identified as apolipoprotein A-I (protein, UniProt P15497 25-265, looked up)
Apolipoprotein A-I: DDPQSSWDRVKDFATVYVEAIKDSGRDYVAQFEASALGKQLNLKLLDNWDTLASTLSKVREQLGPVTQEFWDNLEKETASLRQEMHKDLEEVKQKVQPYLDEFQKKWHEEVEIYRQKVAPLGEEFREGARQKVQELQDKLSPLAQELRDRARAHVETLRQQLAPYSDDLRQRLTARLEALKEGGGSLAEYHAKASEQLKALGEKAKPVLEDLRQGLLPVLESLKVSILAAIDEASKKLNAQ
effect on Daudi cell lysis by control Vγ8Vδ3 T cell clone (#73R9) [9]: neither affected by serum deprivation nor by addition of M5L
effect on Vγ9Vδ2 T cell-mediated lysis of Daudi cells ([9]; Vγ9Vδ2 clones G25, G42): increased Vγ9Vδ2 T cell-mediated lysis in a dose-dependent manner
